Measurements: article PMC12415521 (Methods in molecular biology (Clifton, N.J.), 2023)
Where two headings read alike, the source gives them in different places.

What was measured:
[1] = molecular target: T1, CD2 domain of cpSRP43; assay: ITC
T1 chain: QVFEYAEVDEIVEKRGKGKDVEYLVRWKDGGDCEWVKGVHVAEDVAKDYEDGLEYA

[2] = molecular target: T1, CD2 domain of cpSRP43; assay: ITC

Kd [1]: 1420 nM | Kd [2]: 1270 nM
Binder: APPGTARRKRKADS [54-peptide]
